# Where “and” joins values, the source holds several entries; their conditions need not be identical. Equal entries are not always repeated.
# Tests used:
# [1] = stated, literature or standard value; cited from earlier work
# [2] = Stability of the fluorescence of the BSA conjugate over a broad range of pH values; type: physicochemical; conditions: pH 2.5 to 10.0, 1.52 μM, excitation 495 nm, every 30 minutes for 4.5 hours
# Description: (§1) Isoelectric points of proteins were determined by comparison with positions of standards.
# The fluorescence of the BSA-Bodipy FL conjugate is reported to be insensitive to pH between 4 and 8. […] A fluorescence spectrum from 500-550 nm for an excitation wavelength of 495.0±2.5 nm was recorded for each of the solutions immediately after its preparation and then after each 30 minutes for 4.5 hours.
# [3] = Isoelectric point by polyacrylamide gel isoelectric focusing, compared with positions of standards; type: physicochemical; conditions: constant voltage, mini IEF cell
# Description: The isoelectric points (pI) of proteins were determined experimentally by polyacrylamide gel isoelectric focusing, using the procedure specified by BiORad Laboratories, Inc. (Hercules, Calif.). A mini IEF cell (Model 111) purchased from BiORad equipped by two graphite electrodes was employed for this purpose. Focusing was carried out under constant voltage conditions (Power Pac 1000, BiORad).
# as §1
# [4] = Isoelectric focusing in the microchannel (microfluidic IEF), position of the focused zone; type: physicochemical; conditions: 0.1 mM histidine buffer, initial pH 7.1, 2.5V for 6 minutes
# Description: Bovine hemoglobin (Hb) was selected as a test case because of its strong absorbance at 550 nm (facilitating observation without need for additional dyes). The pI of Hb is 7.1, as verified by polyacrylamide gel isoelectric focusing run at the same concentration as was used for IEF in the microchannel. […] A voltage of 2.5V (resulting in a current of 5 μA) was applied for 6 minutes. Two zones of higher optical density close to the electrodes were formed within 15 s. They moved towards each other meeting to form one dark zone after 5 minutes. Even with a relatively high concentration of Hb (1.55×10^−4 M), the darker zones and their migration were barely visible in color images. Normalized plots of green pixel values vs. position allowed monitoring of Hb migration. The position of the final focused zone of Hb in the microchannel corresponded to a pH of 7.1±0.3 on the basis of previous results with acid-base indicators under similar conditions (FIG. 8). The pI value determined by IEF in the microchannel was within experimental error, identical to that in the literature and that determined by our gel IEF experiment.
Compound,isoelectric point (pI) [1],change of fluorescence over time [2],pI determined by polyacrylamide gel isoelectric focusing [3],pH corresponding to the position of the final focused zone in the microchannel [4]
N[C@@H](Cc1c[nH]cn1)C(=O)O [histidine],7.4,,,
BSA conjugate: fluorescent bovine serum albumin (BSA)—Bodipy FL conjugate (Molecular Probes),,did not significantly change,4.6±0.1 and 4.65,
"Bovine hemoglobin: bovine hemoglobin (Sigma), test analyte for isoelectric focusing",7.1,,7.1,7.1±0.3
human hemoglobin A: pI standard in gel isoelectric focusing,7.1,,,
phycocyanin,4.65,,,
